T1: mouse TNFR1 (biotinylated, immobilized on SPR chip) (mouse (Mus musculus), UniProt P25118 30-212, biotinylated (site not stated))
T1 construct: also called murine TNFR1; mTNFR1
T1 sequence: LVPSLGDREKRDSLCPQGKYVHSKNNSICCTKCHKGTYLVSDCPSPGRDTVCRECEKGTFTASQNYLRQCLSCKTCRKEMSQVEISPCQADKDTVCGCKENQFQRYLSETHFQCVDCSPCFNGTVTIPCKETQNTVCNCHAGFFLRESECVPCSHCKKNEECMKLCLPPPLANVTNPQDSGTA

T2: human TNFR1 (biotinylated, immobilized on SPR chip) (human (Homo sapiens), UniProt P19438 30-211, biotinylated (site not stated))
T2 construct: also called hTNFR1
T2 sequence: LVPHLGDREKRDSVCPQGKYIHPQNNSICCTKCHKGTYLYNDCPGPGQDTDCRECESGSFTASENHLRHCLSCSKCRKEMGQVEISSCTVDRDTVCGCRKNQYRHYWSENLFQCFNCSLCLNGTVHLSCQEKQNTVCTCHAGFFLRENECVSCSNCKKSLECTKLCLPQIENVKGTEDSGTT

B1: TAR2m-21-23 (other)
VH: EVQLLESGGGLVQPGGSLRLSCAASGFTFNRYSMGWLRQAPGKGLEWVSRIDSYGRGTYYEDPVKGRFSISRDNSKNTLYLQMNSLRAEDTAVYYCAKISQFGSNAFDYWGQGTQVTVSS
notes: Domain antibody (dAb), a single immunoglobulin VH variable domain; also called anti-mouse TNFR1 dAb
B2: TAR2h-205 (other)
VH: EVQLLESGGGLVQPGGSLRLSCAASGFTFVKYSMGWVRQAPGKGLEWVSQISNTGGHTYYADSVKGRFTISRDNSKNTLYLQMNSLRAEDTAVYYCAKYTGRWEPFDYWGQGTLVTVSS
notes: Domain antibody (dAb), a single immunoglobulin VH variable domain; also called anti-human TNFR1 dAb

Columns and labels:
[1] = molecular target: T1, mouse TNFR1 (biotinylated, immobilized …); assay: SPR (BIACORE 3000), biotinylated mouse TNFR1 on streptavidin chip, competition with chimeric TNFR1 proteins
Procedure: (§1) If the dAb is pre-incubated and equilibrated with a chimeric molecule that comprises the domain(s) of TNFR1 that the particular dAb binds, then flow of this mixture over the TNFR1 surface will produce a smaller SPR signal relative to the dAb alone.
(§2) The choice of TNFR1 surface is determined by the species specificity of the anti-TNFR1 dAb to be tested. Therefore anti-human TNFR1 dAbs were evaluated using a surface coated with human TNFR1 and anti-mouse TNFR1 dAbs were evaluated using a chip coated with mouse TNFR1.
(§3) Biotinylated TNFR1 was diluted in the appropriate SPR buffer and run across a streptavidin (SA) sensor chip in a BIACORE 3000 SPR instrument (Biacore International AB, Uppsala, Sweden). A low flow-rate (5-10 μl/minute) was used in order to maximise the contact time between the biotinylated TNFR1 and the streptavidin surface. Flow continued until the streptavidin surface was saturated with biotinylated material, in order to generate a chip with maximal TNFR1 surface.

[2] = molecular target: T2, human TNFR1 (biotinylated, immobilized …); assay: SPR (BIACORE 3000), biotinylated human TNFR1 on streptavidin chip, competition with chimeric TNFR1 proteins
Procedure: as §1, §2, §3

Binder	binding result [1]	binding result [2]
B1	binds	
B2		binds

Reference: US20070298041A1 (published 2007)
